PMC6823310, “XszenFHal, a novel tryptophan 5-halogenase from Xenorhabdus szentirmaii” (AMB Express, 2019)

Substrate: N[C@@H](Cc1c[nH]c2ccccc12)C(=O)O
Experiment: initial rates of chlorination by UHPLC-UV, Michaelis-Menten fit
Assay type: biochemical, Xenorhabdus szentirmaii
Settings: 20 mM NaCl, 0.05 mM NADH, 0.01 mM FAD, flavin reductase K12Fre 0.1 μM, phosphate pH 7.5, 25 °C

B1: XszenFHal (FHal16) (Xenorhabdus szentirmaii DSM 16338) (protein)
chain: MINSVLIVGGGTAGWMTAAYLSKAFDKNINITVVESKEVKKIGVGEATFSTVRHYFDYLGLNESEWLPECSGSYKLGIRFENWDGQGNHFYHPFERWEVVKGFPISEWWLSKKLKDQRFDYDTFLTPHLCEAKRSPRRLDGSLFAQSIDKSLGQSTLAEQRAQYPYAYHFDADGVASFLKRYAMNRGVKHIEDDVTHVEIDTNGNIGYLEAKIYGKLRADLYIDCTGFKGLLINKALNEPFISFSDVLKNNRAVALRVPRENENDIEPYTTARTMSNGWRWTIPLYKRNGYGYVYCNKYQSPEEAEMELRKSIPYENAECVANHIRMRIGRSNRSWVKNCVAIGLSSAFVEPLESTGIFFIQHGIEQLVRFFPRSSGNELLIEEYNTRVNRVVDGVKEFLLLHFSLAQRNDTLYWKEWKNVELPKELLKKITLAQDHLLDKETIYPFYHGFEEYSWNTMILGLCSGSLNNKPALSLMTSDEADEMLLQHYMKAENMVNNLPTCYEYLKHIHDLKNKN
notes: N-terminal His tag (modified pET22b(+)), expressed in E. coli BL21-CodonPlus (DE3)-RIPL
Km: 58.22 µM
kcat: 4.44 min⁻¹
